Patent publication US20220372114A1 (published 2022)
Residue numbers refer to the chain shown, from its start.

How the values were obtained:
[1] = target: SARS-CoV-2 (WIV02 isolate) prefusion stabilized spike trimer protein (UniProt P0DTC2 14-1213); assay: ELISA
[2] = target: SARS-CoV-1 Spike (SARS-CoV-1, UniProt P59594 14-1195); assay: ELISA

B1: 4-M3-A (antibody, V domains shown)
VH: EVQLQQSGPELVKPGDSVKISCKASGYSFTGYFMNWVMQSHGKSLEWIGRINPNNGETFYNQKFKGKATLTVDKSSDTAHMELRSLTSEDSAVYYCARGGTGTGWGQGTTLTVSS
VL: DILMTQSPSSMSVSLGDTVSITCHASQGISSNIGWLQQKPGKSFKGLIYYGTNLEDGVPSRFSGSGSGADYSLTISSLESEDLADYYCIQYAQFPYTFGGGTKLEIK
B1 gave an IC50 [1] of 7.36 nM.

B2: 4-N22-A (antibody, V domains shown)
VH: QVQLQQPGTELVKPGASVKLSCKASGYTFTNYWMYWVKQRPGQGLDWIGNINPSNGGTNYNEKFKSKATLTVDKSSSTAYMQLSSLTSEDSAVYYCARETGNYWGQGTTLTVSS
VL: B1 VL with T22S, Y50H, L83F, I89V
B2 showed an IC50 [1] of 4.93 nM.

B3: 6-O12-A (antibody, V domains shown)
VH: QVQLQQPGTELVKPGASVKLSCKASGYTFTSYWMHWVKQRPGQGLEWIGNINPSNGGTNYNEKFRSKATLTVDKSSSTAYMQLSSLTSEDSAVYYCARLGWFLPLGSWGQGTTLTVSS
VL: QIVLTQSPAIMSASLGEVITLTCSASSSVSYMHWYQQKSGTSPKLLIYSTSNLASGVPSRFSGSGSGTFYSLTISSVEAEDAADYYCHQWSGYMYTFGGGTKLEIK
B3 was tested, and the IC50 [2] was 5.4 nM and the IC50 [1] was 7.62 nM.

B4: 8-A17-A (antibody, V domains shown)
VH: QVQLKESGPGLVAPSQSLSITCTVSGFSLTSYAISWVRQPPGKGLEWLGVVWPGGGTNYNSALKSRLSINKDNSKSQVFLKMNSLQTDDTGRYYCARTGYHFDYWGQGTTLTVSS
VL: QIVLTQSPAIMSASPGEKVTMTCSVSSSVSYMHWYQQKSGTSPKRWIYDTSKLASGVPARFSGSGSGTSYSLTISSMEAEDAATYYCQQWSSNPPMYTFGGGTKLEIK
B4 showed an IC50 [2] of 5.1 nM.

B5: 1-B11-A (antibody, V domains shown)
VH: QVQLQQSGPELVKPGASVKISCKASGYTFTDHYINWVKQRPGQGLEWIGWIFPGSGSTYYNEQFKGKATLTVDKSSNTAYMLLSSLTSEDSAVYFCARSGGLRLGFAYWGQGTLVTVSA
VL: DIQMTQTTSSLSASLGDRVTISCRASQDISNYLNWYQQKPDGTVKLLIYYTSRLHSGVPSRFSGSGSGTDYSLTISNLEQEDISTYFCQQVNTLPYTFGGGTKLEIK
In the case of B5, the IC50 [2] is reported as 20.9 nM.

B6: 10-B13-A (antibody, V domains shown)
VH: QVQLQQSGAELVKPGASVKISCKASGYAFSNYWMNWVKQRPGKGLEWIGQIYPGDGDTNYNGNFKGKATLTADKSSSTAYIQLSSLTSEDSAVYFCGRGFIATVVEVFDHWGLGTTLTVSS
VL: B5 VL with H55Q, S67T, S84A, V91G, Y96W
B6 gave an IC50 [2] of 19.4 nM.

B7: 9-F6-A (antibody, V domains shown)
VH: EVQLQQSGPELVKPGASVKMSCKASGYTFTSYIMHWVKQKPGQGLEWIGYILPYNDGTKYNEKFKGKATLTSDKSSSTAYMELRSLTSEDSAVYYCARWGYSNFLDSWGQGTTLTVSS
VL: B5 VL with S30N, S76R, S84A, V91G, Y96P
B7 gave an IC50 [2] of 5.55 nM and an IC50 [1] of 16.7 nM.

B8: 2-O12-A (antibody, V domains shown)
VH: EVQLQQSGPELVKPGASVKISCKASGYTFTDYYMNWVKQSHGKSLEWIGDINSNNGGTTYDQKFKGKATLTVDRSSSTAYMELRSLTSEDSAVYYCARRGDGHFGGFTYWGQGTLVTVSA
VL: not shown
With B8 the IC50 [1] was 14.9 nM.

B9: 3-E2-A (antibody, V domains shown)
VH: B8 VH with S53P, T59S, D61T, R74K, T78K, F104Y
VL: not shown
Work on B9 yielded an IC50 [1] of 18.4 nM.

B10: 8-L17-A (antibody, V domains shown)
VH: EVQLVESGGGLVQPKGSLKLSCAASGFTFNTYAMHWVRQAPGKGLEWVARIRSKSSNYARYYADSVKDRFTISRDDSQSMLYLQMNNLKTEDTAMYYCVRDHDYYGSSYWFAYWGQGTLVTVSA
VL: DVVMTQTPLSLPVSLGDQASISCRSSQSLVHNNGNTYLHWYLQKPGQSPKLLIYKVSNRFSGVPDRFSGSGSGTDFTLKISRVEAEDLGVYFCSQSTHVPWTFGGGTKLEIK
B10 gave an IC50 [1] of 60.8 nM.

B11: 2-P2-A (antibody, V domains shown)
VH: EVQLQQSGAELVRPGSSVKMSCKTSGYTFTSYGINWVKQRPGQGLEWIGYIYIGNGYTEYNEKFKGKATLTSDTSSSTAYMQLSSLTSEDSAIYFCARGGVDYWGQGTTLTVSS
VL: B10 VL with V3L, L29I, N32S, H39E, F92Y, S94F, S96G, T97S, W101Y
B11 gave an IC50 [2] of 17.9 nM.

B12: 8-H3-A (antibody, V domains shown)
VH: B10 VH with R60T, A112T
VL: B10 VL with N32D, Y41F, A85T
With B12 the IC50 [1] was 19.4 nM.

B13: 4-L4-A (antibody, V domains shown)
VH: QAYLQQSGAELVRPGASVKMSCKASGYTFTSYTVHWVKQTPRQGLEWIGGIYPGNVDTSYNQNFKGKATLTVDKSSSTAYMQLSSLTSEDSAVYFCARDGYYAMDYWGQGTSVTVSS
VL: not shown
With B13 the IC50 [1] was 8.34 nM.

B14: 3-P7-A (antibody, V domains shown)
VH: QAYLQQSGAELVRPGASVKMSCKASGYTFTSYSMHWVKQTPRQGLEWIGAIYPGNDDTSYNQKFKGKATLTVDKSSSTAYMQLSSLTSEDSAVYFCTRDYTNYPFDYWGQGTTLTVSS
VL: DIVLTQSPASLPVSLGQRATISCRASKSVSTSGYSYMHWYQQRPGQPPKLLIYLASNLESGVPARFSASGSGTDFTLNIHPVEEEDAATYYCQHSRELPPTFGGGTKVEIK
In the case of B14, the IC50 [1] is reported as 8.86 nM.

B15: 2-G20-A (antibody, V domains shown)
VH: EVQLQQSGPELVKPGASVKMSCKASGYTFPSYVLHWVKQKPGQGLEWIGYIYPYNDGTNYNEKFKGKATLTSDKSSSTAYMELSSLTSEDSAVYYCARGDYGDSAWFPYWGQGTLVTVSA
VL: B14 VL with P12A, R43K, E59K, A68G, S69G, H94L, P100W, V108L
Work on B15 yielded an IC50 [2] of 6.65 nM and an IC50 [1] of 18.3 nM.

B16: 10-O24-A (antibody, V domains shown)
VH: B14 VH with K74R, T101S
VL: B14 VL with P12A, S14F, A68G, V108L
With B16 the IC50 [1] was 5.84 nM.

B17: 9-K4-A (antibody, V domains shown)
VH: B14 VH with T30P, S31N, M34F, K63R, T97A, T101S, Y107C
VL: B14 VL with P12A, R43K, A68G, V108L
B17 gave an IC50 [1] of 72.6 nM.

B18: 2-H7-A (antibody, V domains shown)
VH: QAYLQQSGAELVRPGASVKMSCKASGYTFTGYTMHWVKQTPRQGLEWIGAIYPENGDTSYNQKFKGKATLTVDKSSSTAYMQLSSLTSEDSAVYFCARDGYDVLYGMDYWGQGTSVTVSS
VL: B14 VL with P12A, R43K, A68G, P100W, V108L, E109D
B18 showed an IC50 [1] of 7.21 nM.

B19: 8-H5-A (antibody, V domains shown)
VH: QVTLKESGPGILQSSQTLSLTCSLSGFSLSTSGMGVSWVRQPSGKGLEWLAHIYWDDDKRYTPSLKSRLTISTDSSRKQVFLKITSVDTADTATYYCARRDLHDYDGWFAYWGQGTLVTVSA
VL: DIVMTQSQKFMSTAVGDRVSVTCKASQNVGTNVAWYQQKPGQSPKALIYSASFRYSGVPDRFSGSGSGTDFTLTISNVQSEDLAEYFCQQYNSYPLTFGSGTKLEIK
Work on B19 yielded an IC50 [1] of 12.8 nM.

B20: 1-L10-A (antibody, V domains shown)
VH: EVKLEESGGGLVQPGGSMKLSCVASGFTFNNYWMNWVRQSPEKGLEWVAQMRLKSDNYATHYAESVKGRFTISRDDSKSSVYLQMNNLRAEDTGIYYCIEGYWTYWGQGTLVTVSA
VL: QIVLTQSPAIMSASLGERVTMTCTASSSVSSSYLHWYQQKPGSSPKLWIYSTSNLASGVPARFSGNGSGTSYSLTISSMEAEDAATYYCLQYHRSPPYTFGGGTKLEIK
With B20 the IC50 [2] was 7.5 nM and the IC50 [1] was 8.65 nM.
